In data set [1] the target is T1, RXRalpha (Homo sapiens, UniProt P19793 P19793:1-462). The data set can be described thus: cell_activity; CAT reporter, RA vs no RA. The following applies: tags: pMT2-RXRalpha, CV-1 cells; 5' GATC overhang.
Description: (§1) Maintenance of CV-1 cells, transfection of plasmid DNA into these cells, normalization for plasmid DNA uptake by the cells and CAT and β-galactosidase (β-gal) assays are performed as previously described in the literature. The transfection mixtures contained 5 μg of each reporter plasmid, 5 μg of the β-gal expression vector pRSV-β-gal, the amounts of the pMT2-RXRα, pMT2-RARα, pMT2-RARβ, pMT2-ARP-1 and pMT2-Ear3-COUP-TF expression vectors and the appropriate amounts of the previously described control vector pMT2-UT to bring the final amount of the plasmid DNA in the transfection mixtures to a total of 17 μg. The transfection mixtures containing the expression vectors pMT2-HNF4 or pSG5-AR, 1 μg of the β-gal expression vector pCMV-β-gal instead of the vector pRSV-β-gal is used and the final amount of plasmid DNA in the transfection mixture is adjusted to a total of 13 μg as described above.
(§2) The CAT activity in extracts from these cells is normalized for DNA uptake by the cells by conventional methods, and expressed relative to the normalized CAT activity of the construct -41ALCAT in the absence of cotransfected receptor expression vectors or any ligands (Relative CAT Activity). The data represent the average of at least two independent experiments.
Data set [2] deals with T1, RXRalpha. Description: cell_activity; RA vs no RA. The settings on record: tags: pMT2-RXRalpha, CV-1 cells; 5' GATC overhang.
Data set [3] addresses T1, RXRalpha. The data set can be described thus: cell_activity; RA vs no RA. The following applies: tags: pMT2-RXRalpha, CV-1 cells; 5' GATC overhang. The source holds these as a separate data set.
Description: as §1, §2
Another data set addresses T2, RARalpha (UniProt P10276 P10276:1-462).
T2 sequence: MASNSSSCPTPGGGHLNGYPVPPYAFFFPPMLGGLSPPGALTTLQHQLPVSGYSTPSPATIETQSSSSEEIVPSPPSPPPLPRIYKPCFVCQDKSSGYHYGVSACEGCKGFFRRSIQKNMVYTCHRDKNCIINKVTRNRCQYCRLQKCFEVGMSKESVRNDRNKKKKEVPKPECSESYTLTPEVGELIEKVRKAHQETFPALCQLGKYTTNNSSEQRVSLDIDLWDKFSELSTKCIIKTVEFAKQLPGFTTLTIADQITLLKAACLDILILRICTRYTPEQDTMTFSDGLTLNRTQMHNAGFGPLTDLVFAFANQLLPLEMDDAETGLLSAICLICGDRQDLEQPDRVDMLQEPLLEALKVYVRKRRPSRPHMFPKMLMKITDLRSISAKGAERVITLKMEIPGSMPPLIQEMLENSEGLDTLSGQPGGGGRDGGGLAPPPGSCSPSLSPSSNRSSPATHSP
Description: cell_activity; two copies of M3; RA; 500 ng RARalpha vector reverses ARP-1 repression and exceeds no-ARP-1 level. The following applies: tags: pMT2-RARalpha, CV-1 cells; 5' GATC overhang. The method, then:
A reporter construct similar to [A5']-41ALCAT but containing two copies of a mutated version of site A5' in which the sequence CCT in the spacer between the two repeats in the site A5' has been changed to TTT (M3) is tested for its responsiveness to different amounts (indicated) of the RXRα or RARα expression vectors in the presence of RA and the indicated amounts of the ARP-1 expression vector by transient transfection assays into CV-1 cells as described in FIG. 8.

The target of data set [4] is T1, RXRalpha. The data set can be described thus: cell_activity; yeast lacZ reporter, two copies, 1e-6 M 9-cis-RA; 4-fold with all-trans-RA. The settings on record: protein: extract; tags: ubiquitin-fusion expression in yeast (YEpRXRalpha); label: 32P.

T1 sequence (P19793 whole entry, one chain of several): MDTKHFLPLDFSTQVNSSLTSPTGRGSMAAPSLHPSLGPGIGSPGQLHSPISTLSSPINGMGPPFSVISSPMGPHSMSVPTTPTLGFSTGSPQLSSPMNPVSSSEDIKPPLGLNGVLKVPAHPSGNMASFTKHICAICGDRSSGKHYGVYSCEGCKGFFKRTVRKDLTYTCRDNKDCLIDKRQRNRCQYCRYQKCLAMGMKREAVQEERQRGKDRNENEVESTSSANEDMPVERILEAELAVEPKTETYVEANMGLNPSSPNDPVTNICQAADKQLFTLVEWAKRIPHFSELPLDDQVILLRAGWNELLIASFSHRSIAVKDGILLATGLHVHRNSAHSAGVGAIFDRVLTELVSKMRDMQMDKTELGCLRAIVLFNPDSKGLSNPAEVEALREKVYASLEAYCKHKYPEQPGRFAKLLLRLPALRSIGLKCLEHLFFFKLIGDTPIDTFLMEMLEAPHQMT

B1: M4 (dsDNA)
DNA 1: ACTGACCCCTTGACCCCTG
DNA 2: CAGGGGTCAAGGGGTCAGT
With B1, the activity with RXRalpha [1] was found to be 7 fold.

B2: M10 (dsDNA)
DNA 1: ACTGACCTGTGACCCCTG
DNA 2: CAGGGGTCACAGGTCAGT
In the data set with RXRalpha [2], B2 yielded an activity below 3 fold.

B3: M2 (dsDNA)
DNA 1: ACTGAACTGATGACCCCTG
DNA 2: CAGGGGTCATCAGTTCAGT
For the molecule B3, in the data set with RXRalpha [3], the activity was below 3 fold.

B4: site A5' (dsDNA)
DNA 1: ACTGAACCCTTGACCCCTG
DNA 2: CAGGGGTCAAGGGTTCAGT
B4 came in with an activity with RXRalpha [1] of 4.8 fold.

B5: M3 (dsDNA)
DNA 1: ACTGAACTTTTGACCCCTG
DNA 2: CAGGGGTCAAAAGTTCAGT
As for B5, the activity with RARalpha is above 2 fold.

B6: M9 (dsDNA)
DNA 1: ACTGAACTGTGACCCCTG
DNA 2: CAGGGGTCACAGTTCAGT
In the data set with RXRalpha [2], B6 registered an activity below 3 fold.

B7: apoAI site A (oligo A) (dsDNA)
DNA 1: ACTGAACCCTTGACCCCTGCCCT
DNA 2: AGGGCAGGGGTCAAGGGTTCAGT
In the data set with RXRalpha [4], B7 returned an activity of 14 fold.

Values taken from US5691196, “Recombinant nucleic acid containing a response element” (American Cyanamid Company).
